The text below walks through data of patent US20140370037A1 (published 2014).

T1: human DLL3 antigen (human, UniProt Q9NYJ7 27-492, limits assumed)
T1 construct: also called immobilized human DLL3; recombinant human DLL3
T1 sequence (looked up): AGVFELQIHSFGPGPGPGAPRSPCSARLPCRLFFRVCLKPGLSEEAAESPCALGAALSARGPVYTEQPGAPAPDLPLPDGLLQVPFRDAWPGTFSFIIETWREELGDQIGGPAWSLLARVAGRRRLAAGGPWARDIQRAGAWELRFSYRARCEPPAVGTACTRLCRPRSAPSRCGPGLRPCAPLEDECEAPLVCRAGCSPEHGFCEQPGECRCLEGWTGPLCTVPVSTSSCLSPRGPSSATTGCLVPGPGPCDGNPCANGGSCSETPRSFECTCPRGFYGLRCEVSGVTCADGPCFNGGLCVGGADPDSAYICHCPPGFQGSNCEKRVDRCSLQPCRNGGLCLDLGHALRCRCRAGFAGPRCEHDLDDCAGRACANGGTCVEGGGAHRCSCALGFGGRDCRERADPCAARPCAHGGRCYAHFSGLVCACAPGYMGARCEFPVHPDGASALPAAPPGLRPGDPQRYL

B1: SC16.57 (antibody, V domains shown)
VH: EVKLVESGGDLVKPGGSLKLSCAASGFAFSSYDMSWVRQTPEKRLEWVATISSGGSYTYYPDSVKGRFTISRDNVRDTLYLQMSSLRSEDTALYYCARQAIGTYFDYWGQGTTLTVSS
VL: DIVMTQSHKFMSISVGDRVSITCKASQDVSIFVAWYQQKPGQSPKLLIYSASYRYTGVPDRFTGSGSGTDFIFTISSVQAEDLAVYYCQQHYGTPFTFGSGTKLKIR
notes: murine mAb
B2: SC16.73 (antibody, V domains shown)
VH: QVQLQQSGAELMKPGASVKISCKANGYTFSSYWIEWLRQRPGHGLEWIGEILPGSDNSNYNEKFKGKATFTADTSSNTAYMQLSSLTSEESAVYYCTRGLRRDGSYYYVMEHWGQGTSVTVSS
VL: DIQMTQSPSSLSASLGERVSLTCRASQDIGYSLNWLQQEPDGTIKRLIYATSSLDSGVPKRFSGSRSGSDYSLTISSLESEDFVDYYCLQYASSPWTFGGGTKLEIK
notes: murine mAb
B3: SC16.55 (antibody, V domains shown)
VH: EVQLVESGGGLVQPKGSLKLSCAVSAFTFTTYAMNWVRQAPGKGLEWVARIRNKSNNYATYYADSVKDRFTISRDDSQSMLYLQMNNLKIEDTAMYYCVFYYDYVYWGQGTLVTVSA
VL: DIKMTQSPSSMYASLGERVTITCKASQDINSYLNWFQQKPGKSPKTLIYRANRLVDGVPSRFSGSGSGQDYSLTISSLEYEDMGIYYCLQYDEFPYTFGGGTKLEIKR
notes: murine mAb
B4: SC16.62 (antibody, V domains shown)
VH: EVMLVESGGDLVKPGGSLKLSCAASGFTFSSYAMSWVRQTPEKRLEWVAYISGGGDHIYYPDSVRGRFTISRDNAKDTLYLQMSSLRSEDTALYDCARVRDWYFDVWGAGTTVTVSS
VL: B3 VL with Y32F, N34S, Q38R, S63T, D70E, Y71F, M83L
notes: murine mAb
B5: SC16.67 (antibody, V domains shown)
VH: B3 VH with S7T
VL: QAVVTQESALTTSPGETVTLTCRSSTGAVTTSNYANWIQEKPDHLFTGLIGGTNNRAPGVPARFSGSLIGDKAALTITGAQTEDEAIYFCGLWYSNHLVFGGGTKLTVL
notes: murine mAb
B6: SC16.63 (antibody, V domains shown)
VH: QVQLQQSGTELLRPGASVKISCKATGYTFSSYWMEWVKQRPGHGLEWIGEILPGSGTTQYNEKFKGKATFTADTSSNTAYMHLSSLTSEDSAVYYCARGTNSLWGQGTLVTVSA
VL: QIVLTQSPAIMSASPGEKVTMTCSASSSVSYMYWYQQKSGTSPKRWIYDTSKLASGVPARFSGSGSGTSYSLTISSMEAEDAATYYCQQWSSNPYTFGGGTKLEIK
notes: murine mAb
B7: SC16.49 (antibody, V domains shown)
VH: QVQLQQSGPELVKPGTLVKISCKASGYTFTSYDINWVKQRPGQGLEWIGWIYPGDGNTKYSEKFKGKATLTADKSSSTAYMQLTSLTSENSAVYFCARDYDYPFAYWGQGTLVTVSA
VL: DIKMTQSPSSMYASLGERVTITCKASQDINSYLSWFQQKPGKSPKTLIYRANRLVDGVPSRFSGSGSGQDYSLTITSLEYEDMGIYYCLQYDEFPLTFGAGTKLELK
notes: murine mAb
B8: SC16.78 (antibody, V domains shown)
VH: EVKLVESGGGLVKPGGSLKLSCAASGFTFGRYVMSWVRQTPEKKLEWVASITSGGTTYYPDSVKGRFTISRDNARNILYLQMSSLRSEDTAMYYCARVYYHYDDIFAYWGQGTLVTVSA
VL: B7 VL with K42R, T76S, E79D, L96F, A100S, L106I
notes: murine mAb
B9: SC16.47 (antibody, V domains shown)
VH: EVQLQQSGPELVKPGASVKISCKASGYSFSRFYMHWVKQSPENSLEWIGEINPSTGGTSYNQKFKGKATLTVDKSSSTAYMQLKSLTSEESAVYYCTRGYGSNCYFDVWGAGTTVTVST
VL: DVVLTQSPLSLPVNIGDQASISCKSTKSLLNSDGFTYLDWYLQRPGQSPQFLIYLVSNRFSGVPDRFSGSGSGTDFTLKISRVEAEDLGVYYCFQSNYLPLTFGAGTKLELR
notes: murine mAb
B10: SC16.38 (antibody, V domains shown)
VH: EVQLQQSGAELVKPGASVKLSCTVSGFNIKDTYIHWVKQRPEQGLEWIGRIDPANGNTKYDPKFQGKATITADTSSNTAYLQLSSLTSEDTAVYYCARPTGYFEYWGQGTTLTVSS
VL: QIVLTQSPAIMSASPGEKVTMTCSASSSINYMHWYQQKPGTSPKRWIYDTSKLASGVPARFSGSGSGTSYSLTISSMEAEDAATYYCHQRSTWTFGGGTKLEIK
notes: murine mAb
B11: SC16.61 (antibody, V domains shown)
VH: EVLLQRSGPDLVKPGASVTIPCKASGYTFTDYNMDWVKQSHGKSLEWIGNINTYNGGTIYNQKFKGKATLTVDKPSSTAYMELRSLTSEDTAVYYCARRLRYGGHYFDYWGQGTALTVSS
VL: DIVMTQSTSSLAMSVGQKVTMSCKSSQSLLNSSNQKNYLAWYQQEPGQSPKLLVSFASTRESGVPDRFTGSGSGTDFTLTISGVQAEDLAVYYCQQHYSIPLTFGAGTKLELK
notes: murine mAb
B12: SC16.65 (antibody, V domains shown)
VH: QVTLKESGPGILQPSQTLSLTCSFSGFSLSTSGMGVGWIRQPSGKGLEWLALIWWDDVKRYNPALKSRLTISKDASSSQVFLKIASVDTADTATYYCARIASYDYDVVYAMDYWGQGTSVSVSS
VL: QIVLTQSPALMSASPGEKVTMTCSVTSSVSYMYWYQQKPRSSPKPWIYLTSNLASGVPARFSGSGSGTSYSLTISSVEAEDAATYYCQQWRNNPFTFGSGTKVEIK
notes: murine mAb
B13: SC16.45 (antibody, V domains shown)
VH: QVQLQQSGADLVRPGTSVKVSCKASGYSFTNYLIEWVKQRPGQGLEWIGVINPGSGGTHYNEKFKDKAVLTADKSSTTAHMQLSSLTSDDSAVYFCARSPYDYNDGAMDYWGQGTSVTVSS
VL: EIQMTQSPSSMSASLGDRITITCQATQDIVKNLNWYQQKPGKPPSFLIYYATELAEGVPARFSGSGSGSDYSLTISNLESEDFADYHCLQFYEFPFTFGAGTKLELK
notes: murine mAb
B14: SC16.36 (antibody, V domains shown)
VH: QVQLQQSGAELAKPGASVKMSCKASGYTFTTYWMHWVKQRPGQGLEWIGYINPSSGYTEYNQKFKDKATLTADKSSSTAYMQLSSLTSEDSSVYYCARKGSNRGFAYWGQGTLVTVS
VL: ETTVTQSPASLSVTTGEKVTIRCITTPDIDDDMNWYQQKPGEPPNLLISEGNSLRPGVPSRFSSSGYGTNFVFTIENTLSEDVADYYCLQSDNMPFTFGSGTKLEIK
notes: murine mAb
B15: SC16.58 (antibody, V domains shown)
VH: DVQLVESGGGLVQPGGSRKLSCAASGFTFSSFGMHWVRQAPEKGLEWVAYISSGSSNIYYADTVKGRFTISRDNPKNTLFLQMTSLRSEDTAMYYCARGYYGNYDAMDYWGQGTSVTVSS
VL: DIQMTQSPASLSSSVGETVTITCRASENIYSYLAWYQQKQGKSPQLLVYNAKTLAEGVPSRFSGSGSGTQFSLKINSLQPEDFGTYYCQHHYDSPLTFGAGTKLELR
notes: murine mAb
B16: SC16.42 (antibody, V domains shown)
VH: QIQLVQSGPELKKPGETVKISCKASGYTFTTAGMQWVQKMPGKGFKWIGWINTHSGEPKYADDFKGRFAFSLETSASTAYLQISNLKDEDTATFFCAPLWSDSSFAYWGQGTLVTVSA
VL: DVLMTQSPLSLSVSLGDQASISCRSSQNIVHSDRYTYLEWYLQKPGQSPKLLIYGVSNRFSGVPDRFSGSGSGTDFTLKISRVEAEDMGVYYCFQGTHVPYTFGGGTKLEIK
notes: murine mAb
B17: SC16.7 (antibody, V domains shown)
VH: EVQLQQSGPELVKPGASVKISCKASGYSFTGYKMHWVKQSHVKSLEWIGRINPYNGATSYNQNFKDKATLTVDKSSSTAYMDLHSLTSEDSAVYFCARGDYRYDWFAYWGQGTLVTVSA
VL: NIMMTQSPSSLAVSAGEKVTMSCKSSQSVLYSSNQKNYLAWYQQKPGQSPKLLIYWASTRESGVPDRFTGSGSGTDFTLTISTVQVEDLAVYYCHQYLSSWTFGGGTKLEIK
notes: murine mAb
B18: SC16.56 (antibody, V domains shown)
VH: QIQLVQSGPELKKPGETVKISCKASGYTFTNYGMNWVKQAPGKGLKWMAWINTYTGEPTYADDFKGRFAFSLETSASTASLQIINLKNEDTATYFCARIGDSSPSDYWGQGTTLTVSS
VL: SIVMTQTPKFLLVSAGDRVTITCKASQSVSNDVVWYQQKPGQSPKLLIYYASNRYTGVPDRFAGSGYGTDFSFTISTVQAEDLAVYFCQQDYTSPWTFGGGTKLEIR
notes: murine mAb; also called anti-human/mouse DLL3 (SC16.56)
B19: SC16.72 (antibody, V domains shown)
VH: EVQLQQSGPELVKPGASVKMSCKASGYTFTSYVMHWVKQKPGQGLEWIGYINPYNDGTKYNEKFKGKATLTSDKSSSTAYMELSSLTSEDSAVYYCARLRSRAMDYWGQGTSVTVSS
VL: ENVLTQSPAIMSASLGEKVTMSCRASSSVNYMSWYQQKSDASPKLWIYYTSNLAPGVPARFSGSGSGNSYSLTISSMEGEDAATYYCQQFTSSPYTFGGGTKLEIKR
notes: murine mAb
B20: SC16.52 (antibody, V domains shown)
VH: QVQLKESGPGLVAPSQSLSITCAVSGFSLTSFAIHWFRKPPGKGLEWLGVIWTGGTTNYNSALMSRLSISKDNSKSQVFLKMNSLQTDDTAMYYCARDDYDNNYAMDYWGQGTSVTVSS
VL: DIQMIQSPSSMFASLGDRVSLSCRASQGIRGTLDWYQQKPNGTIKLLIYSTSNLNSGVPSRFSGSGSGSDYSLTISSLESEDFADYYCLQRNAYPLTFGAGTKLELK
notes: murine mAb

Numbering of substitutions follows the chain as printed.

The assay has as its target T1, human DLL3 antigen. Put plainly: ELISA or flow cytometry screen. In general terms: An ELISA detects its analyte on a solid surface through an enzyme-linked reagent.
For B1, the binding result was “binds”. Then B2, with “binds”. Then B3, with “binds”; and B4, with “binds”.

As to B5, the binding result is “binds”. For B6, the binding result is “binds”.

Consider B7, for which the binding result is recorded as “binds”.

B8: the binding result is on record as “binds”. For the molecule B9, the binding result is “binds”. Then B10, with “binds”; and B11, with “binds”. The entry for B12 is “binds”.

Consider B13, for which the binding result is “binds”.

Take B14: the binding result is reported as “binds”.

With B15, the binding result is “binds”. The entry for B16 is “binds”; for B17 it is “binds”. Consider B18, for which the binding result is on record as “binds”. The entry for B19 is “binds”; for B20 it is “binds”.
